Experimental data: IntAct's records for PubMed 25503564

B1: Centrosomal protein of 68 kDa (Homo sapiens), Q76N32 (parent)
chain: MALGEEKAEAEASEDTKAQSYGRGSCRERELDIPGPMSGEQPPRLEAEGGLISPVWGAEGIPAPTCWIGTDPGGPSRAHQPQASDANREPVAERSEPALSGLPPATMGSGDLLLSGESQVEKTKLSSSEEFPQTLSLPRTTTICSGHDADTEDDPSLADLPQALDLSQQPHSSGLSCLSQWKSVLSPGSAAQPSSCSISASSTGSSLQGHQERAEPRGGSLAKVSSSLEPVVPQEPSSVVGLGPRPQWSPQPVFSGGDASGLGRRRLSFQAEYWACVLPDSLPPSPDRHSPLWNPNKEYEDLLDYTYPLRPGPQLPKHLDSRVPADPVLQDSGVDLDSFSVSPASTLKSPTNVSPNCPPAEATALPFSGPREPSLKQWPSRVPQKQGGMGLASWSQLASTPRAPGSRDARWERREPALRGAKDRLTIGKHLDMGSPQLRTRDRGWPSPRPEREKRTSQSARRPTCTESRWKSEEEVESDDEYLALPARLTQVSSLVSYLGSISTLVTLPTGDIKGQSPLEVSDSDGPASFPSSSSQSQLPPGAALQGSGDPEGQNPCFLRSFVRAHDSAGEGSLGSSQALGVSSGLLKTRPSLPARLDRWPFSDPDVEGQLPRKGGEQGKESLVQCVKTFCCQLEELICWLYNVADVTDHGTAARSNLTSLKSSLQLYRQFKKDIDEHQSLTESVLQKGEILLQCLLENTPVLEDVLGRIAKQSGELESHADRLYDSILASLDMLAGCTLIPDKKPMAAMEHPCEGV

Variants of: B1
Settings: with fbw1a_human BTRC

effect of a mutation on the interaction	Variant
decreasing interaction strength	D337A
disrupting interaction strength	S332A
disrupting interaction strength	S332A;D337A
